The assay addresses T1, GST alone (UniProt P08515 1-218 = GST).
T1 construct: Negative control of the pull-downs; also called control GST
Briefly: GST pull-down, LC-MS/MS. As for the experimental part:
Extracts were spun at 14,000 r.p.m. at 4° C., and clarified supernatants were incubated with glutathione 4B Sepharose beads (GE Healthcare) at 4° C. overnight. The glutathione beads were then washed extensively with ice-cold TNE buffer, and bound proteins were subjected to SDS-PAGE followed by immunoblotting analysis. For the samples subjected to mass spectrometry, glutathione bead-bound proteins from equal amounts (600 μg) of mitochondria were further washed with high stringency RIPA buffer following TNE buffer wash to decrease nonspecific interaction. Proteins were then eluted from the glutathione beads in SDS sample buffer, separated by SDS-PAGE and stained with Coomassie. Proteins in the gel were digested with trypsin and analyzed by mass spectrometry (LC-MS/MS) at the Taplin Biological Mass Spectrometry Facility (Harvard Medical School, Boston, Mass.).

T1 sequence (P08515 whole entry): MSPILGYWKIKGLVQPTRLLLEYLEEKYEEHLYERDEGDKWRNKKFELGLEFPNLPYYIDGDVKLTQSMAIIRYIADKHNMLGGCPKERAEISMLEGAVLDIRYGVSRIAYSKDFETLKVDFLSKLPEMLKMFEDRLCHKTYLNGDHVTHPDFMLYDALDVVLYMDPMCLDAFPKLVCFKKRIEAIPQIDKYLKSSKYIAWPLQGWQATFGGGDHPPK

B1: Fabp5_IPI:IPI00114162.3 (other, mouse, UniProt Q05816 2-135, looked up)
chain: ASLKDLEGKWRLMESHGFEEYMKELGVGLALRKMAAMAKPDCIITCDGNNITVKTESTVKTTVFSCNLGEKFDETTADGRKTETVCTFQDGALVQHQQWDGKESTITRKLKDGKMIVECVMNNATCTRVYEKVQ
Turning to B1, the binding result is recorded as “no binding”.

B2: Iscu_IPI:IPI00110578.1 (other, mouse, UniProt Q9D7P6 36-168, looked up)
chain: YHKKVVDHYENPRNVGSLDKTSKNVGTGLVGAPACGDVMKLQIQVDEKGKIVDARFKTFGCGSAIASSSLATEWVKGKTVEEALTIKNTDIAKELCLPPVKLHCSMLAEDAIKAALADYKLKQESKKEEPEKQ
As to B2, the binding result is given as “no binding”.

B3: Lyrm7_IPI:IPI00117832.1 (other, mouse, UniProt Q9DA03 1-104, looked up)
chain: MGQPAKVLQLFKTLHRTRQQVFKNDKRALEAARVKINEEFKKHKNETSPEKIKEMMKLGSDVELLLRTAVIQGIHTDHDTLQLVPRKDLLTENVPYCDAPTQKQ
B3: the binding result is “no binding”.

B4: Lyrm4_IPI:IPI00169804.1 (other, mouse, UniProt Q8K215 1-91, looked up)
chain: MAASSRAQVLDLYRAMMRESKHFSAYNYRMYAVRRIRDAFRENKNVKDPVEIQALVNKAKRDLEIIRRQVHIGQLYSTDKLIIENQEKPRT
On to B4, for which the binding result is reported as “no binding”.

B5: Hint2_IPI:IPI00133034.3 (other, mouse, UniProt Q9D0S9 18-163, looked up)
chain: LAAAGARGAQVRGNAGVSDGSEVAKAQKAAPGGASPTIFSRILDRSLPADILYEDQQCLVFRDVAPQAPVHFLVIPRKPIPRISQAEEDDQQLLGHLLLVAKKIAQAQGLKDGYRLVVNDGKMGAQSVYHLHIHVLGGRQLQWPPG
For the molecule B5, the binding result is listed as “no binding”.

B6: Cisd3_IPI:IPI00345740.4 (other, mouse, UniProt B1AR13 1-137, looked up)
chain: MGFRRLSFPTDFIFLFPNHICLPALSKPYQRREISSWLARWFPKDPAKPVVAQKTPIRLELVAGKTYRWCVCGRSKNQPFCDGSHFFQRTGLSPLKFKAQETRTVALCTCKATQRPPYCDGTHKSEQVQKAEVGSPL
Take B6: the binding result is on record as “no binding”.

B7: Mrps33_IPI:IPI00135214.1 (other, mouse, UniProt Q9D2R8 2-106, looked up)
chain: SPLSEYALRMSRLSARIFGEVARSTDSKSMKVVSLFSEQPLAKKKETYDWYPNHNTYFALMGNLRFLGLYRDEHQDFKDEQRRLKKLRGKGKPRKGEGKRATKKK
On to B7, for which the binding result is on record as “no binding”.

B8: Fahd1_IPI:IPI00468850.1 (other, mouse, UniProt Q8R0F8 25-221, looked up)
chain: ADHVKEMRSTVLSEPVLFLKPSTAYAPEGSPVLMPAYCRNLHHEVELGVLLGKRGEAIPEAAAMDYVAGYALCLDMTARDVQEECKKKGLPWTLAKSFTSSCPVSAFVPKEKIPDPHALRLWLKVNGELRQEGKTSSMIFSIPYIISYVSKIITLEEGDLILTGTPKGVGPIKENDEIEAGIDGVVSMRFKVKRSEY
On to B8, for which the binding result was “no binding”.

B9: Chchd4_IPI:IPI00124389.1 (other, mouse, UniProt Q8VEA4 1-139, looked up)
chain: MSYCRQEGKDRIIFVTKEDHETPSSAELVADDPNDPYEEHGLILPNGDINWNCPCLGGMASGPCGEQFKSAFSCFHYSTEDIKGSDCIDQFRAMQECMQKYPDLYPQDEEEEEEAKPVEPVEETADTKVSAAKEQGTSS
For B9, the binding result was “no binding”.

B10: Ndufa11_IPI:IPI00318645.6 (other, mouse, UniProt Q9D8B4 1-141, looked up)
chain: MVKRFFESYHEVPDGTQCHRKTYITTALGGICGIIGSAYRVSLNPADSTLEAVARVGRYTFTAAAIGAMFGLTTCVSAQVREKPDDPLNYFIGGCAGGLTLGARTHSYGTAAMGCVYMGTAAALFKIGKLEGWELFPTPKV
For the molecule B10, the binding result is given as “no binding”.

B11: Mrpl43_IPI:IPI00278781.1 (other, mouse, UniProt Q99N89 1-183, looked up)
chain: MTGRGTSSRFLTSVLHNGLGRYVQQLQRLSLSLSRDAPSSRGAREFVEREVTDFARRNPGVVVYVNPRPCAMPRIVAEYLNGAVREENVNSKSVEEIKSLVQKLADQSGLDVIRIRKPFHTDNPSIQGQWTPSPTNGLPSTGCGPENSGILLQLRCKHSKEPGALDRERDRIGSSFGFQAQAE
With B11, the binding result is “no binding”.

The values are drawn from patent publication US20200085917A1 (UNIVERSITY OF PITTSBURGH OF THE COMMONWEALTH SYSTEM OF …, published 2020).
